Test results from the domain aggregation screens of Martell et al. (2025).

Experiment: soluble fraction after stress (log2 fold change); higher = more stays soluble; pooled small domains, quantitative proteomics
Details: stress: 75 degC
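Also: 20 min heating vs room temperature control held 20 min.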

Sequence	soluble fraction (log2)
HMEVVVPDFEKIYIRDLDKFVEGHNVRYEIVDSIYNLEKDKGTVVDQDPEPGSKVKHGRVIYLTVNAML	-0.231
HMEVVVPEDLDAALQQASRAQSFFSSLSYTHKKEYVAWINEAKRAETRAMRIQKTITMLESGQRGH	-2.35
HMEWEVHSVTVTPELSGERLDVAATALLSQFSRALVQRWIDANELTLNERPVKAKSKVRVGDLIAVKAK	-1.06
HMEWLENIKKLKKEKGLTNESLSEKSGISVGTLNKLLSGATTDPKLSTLRPLADALEVSLDELLAI	-0.0723
HMEWTDIPTHKVPNVVGKSVEEAKKKLSKFTIEYSGTGEKVVAQSPDAGEKLEEGGTVRLLL	-0.136
HMEYEETMSQIKHNLNLLPRQQRVIIEMAKFDELTPAEIAKQLGISVQTVRNQLSTGLKKLRQLL	0.0391
HMEYKKKIGELLIDGNKKLKAANIDTYILDTQLLLGKVLGKDKLYLITNKDEEVSNFKEREFYSLIEKRI	0.0872
HMEYMKQRLYDIIELFKRSFSPSFSEEEKKKLENVLQDDFLRKAYEQLSDEVFIEEKFREFDGY	-2.88
HMEYPNEIARIFNQIPELNVSAVARTLGINKSLLSSYIYGMKKPSPERTEEIKSAIRKIGQNMLAV	-0.927
HMEYQSLVLDFLEQGDFNAEKLKDYQRAFAKQNGMQTLPSKSQILQAYFQLVEEKKINKNSDFELLLRKR	-0.32
HMEYSNLGEALRRLSEIDLQIILLKYSHGFSIKEISKILDIKEVNLYKRNKRALNKLKKILAEMEVLSN	-0.34
HMEYYDDEELDRFRGVEADAYDEDAVNEFRDVLYTLQEIEVAGWLRSLQLRAINLPDELKDEAFLI	-1.48
HMEYYEDEELDRFRGRNSDQYSDAEIEEFNEILTTLRSEEVAGWIRSLQLREIALPDELKDDVILLVG	-0.903
HMEYYIMPVANLHKVVVDGKDMSNLISNNAIAVKANVIDEGQIQIKPGEIIITTPAGVSPEEAVRSP	≥ 1.04
HMFANQLLLTRFDLNYIKSDVLSRQIDVLGIPIKKLTIEANNKSIWLQGTSQSLSKVRELIGIIDIRENA	-3.38
HMFAQDKKFITYKVKEGETVQSISKALSITPYDLLKLNPDIKDNVSQDDLLIIPNKQYDPLGDI	0.378
HMFDENVKLIENEYDVSIISRGSELKVMGDVENVDKAARALRSMLAMINKGESLTEQNVRYVLTLVNEGNE	-0.735
HMFDFLELGQAIQDAREKQRITREELAEELGISARHLQSVEKEGQYPSFRLFIQLVTMFHISVDQYI	-0.0535
HMFDLATVKRVAEEAGMKFTIHPVELRAAHPNTAVLTLKSKAGRILVLKAASVGGGRIRVTEIDGVPAD	-0.335
HMFDLDIEQIANDLKHGVMPNLYGLSLQDALYLLEAKGIRVKVAGSGSVVNQSIKTGAYVGSGSVLKLEL	-1.78
HMFDLSQRQEQIIEIVRKHGPITGEKIADLLYVTRAALRPDLAILTMSGYLEAKPRVGYTYK	-1.64
HMFDMLGDQIKKYRKEKKMSQEELAIPLNVVRQTVSKWENNLSVPDAELLIRLAEVLEISVAELLGT	-0.378
HMFDTVFIVRKTSDKPLDGLRTYLNSIGDSLVIGEDDEAFKVHVHTNHPGKVLEEAITYGALQTVKIENMR	-1.07
HMFDTVTIGRKIAELRKAHNMTQFELADALGISFQAVSNWERGASMPDISKLPELAEIFGVTIDEVLGK	-1.5

Sequence	soluble fraction (log2)
HMFEATGKITGTEVSFRRKPTTDSERILFFDINTEFRVIGINNGWYKGVYQGKTGYVRSDFVEIVGG	-2.05
HMFEEPYLATYPVLIDPKLAFNVLDTMLEGLEVKMDQDEETGAISVLAPASIHTKITEYLDALSKQ	-0.0924
HMFEERKKDWNLTGLLDDVIRRYIHQLTNDELNEINLEKSSGMPDEEIKNGIKLPLAVMQQRRETWGS	-0.252
HMFEQRLRQAMKELRLKQVQVAGLTGKSRGAISQYLSGDRVPPDGVQREMAIALGLEADYFSR	-0.85
HMFERFIFTDEVYIRLKKSGLPQTTLRPLLEIHGKSFDHNEINIILSGLIPNQDFERYAQIIKSHSRF	-4.24
HMFEYDEIMEQSVPKIAWGSLLTIMKKASSHKEMLWYINETYKNGWSRSMVLNQIAMASYERSLIE	-0.732
HMFFDKIIVDFLADGSRIDKYISTLYPDISRTHIQRLIAEQFILVNDSVVKSNYKLSTNDVVLIHIPEA	-3.01
HMFFMTMGEKIQLLRKKQNWSQETLAEKLSVSRQAVSLWERDESQPELDKLLKLAKIFSVTTDYLIDDSVT	-3.19
HMFGGIEFGWSQLPDGRVEYIIQLDDQAIAALKNGRSLTSSLPPEVQNADRIRIQYGAGPVEKGLLLQ	-0.206
HMFIEMDEPEKILHRILNEANGKLELDKIGYRAEWPIGKVLTVLMSLELKGVVQSHPGKVYSL	-0.371
HMFIGFLHQLKEAGVPVSIREYLDFLSGLDKGITNLNTNSFYHFARASLVKDERHYDRFDRTFSEFFEGAL	-3
HMFIQLSQEEKKVVEGLQQRSKTHLDALALEVGQNISKTAAMLMELEMKGVVRALPGKYYEL	-1.1
HMFKEVPVPDVKGMTLEEAKLALEKEGFILGKTEEAESTEVAAGKIISQNLEAGKIAKQGTSVNLVVSKGK	0.454
HMFKLPRTIGTFEDSDVVIGAGKFGPYIMHNKKFVSLPKSEDPLTIGLERAIELISAKREQEKQRH	0.265
HMFLPFFDNLRKAGVPVSLREFLGFLEGMKAGLATYDIDAFYFLARTTMVKDERNLDKFDRAFSATFKG	-1.02
HMFNDGEIAIYTDPRGDAGETQIWKRGKGYYGQNDSFDFEAKDKKELEMKLKRWGYVLIAGSIDE	-0.435
HMFNGDPTTRESILASARAEIDQYGIIGLRLSAVAEKAQVSVPLIYKYFEDRDGLLAVVLGDW	-1.21
HMFNTWLGEIRSNTGANVRSGPDASAAIVDARPNETVVRVIGQSGNWLQIGDKQFVAQSLVAP	-0.0837
HMFPDLTGDELRIVDLLNTANDLQVNIITAKTNLPISRVTSLLFQLEMKGVVKPLAGGMYHLLG	-1.49
HMFPELDEEEQKITKLLQAQNDLPANIIAVKTALNIGTTQAKLFSLEMKGVVKPYAGGFYHLL	-2.73
HMFPNLTNEEQQVMKVLAKTNDLQINMLSVQSNLPIARLTALLFSMEMKGVVKTLAGGVYHLL	-4.27
HMFPNSFSEREKEVVDLLLQAKSNKQIAFSLGITNRTVEYHLGNIFAKLGVSSRSEAILTITNYKNQ	-2.35
HMFPQVEVQLIYSYKSDRILNKMLKEFNVVILNQVFKDDILTSFHMNYSLVNQLITKIKSYPDISYKIIN	-1.82
HMFPTLNEDEQTIVSALQKINDQPINTLSIHTALPIPRLTSLLFQLEIKGVIKQLAGGTYHVL	-2.84

Sequence	soluble fraction (log2)
HMFQLSNEAKQQVLGELKRYESKQSAVLPALYIGQKDNKGHITPEVIRELSKVMDIPESQINEVFTFYTM	-0.287
HMFQRLPFSFANRYKMVLEYQHPERPPVLYYVEPLKAAAILEVSRVIKSGFTPQAIVSDEFEKKLTEAYQR	-2.76
HMFRMTPQRMAILAEVQNAERHLTAAEIYERVRRKYPTIAYGTVYRTLHLLAKHGLIQEFPFGDNASLFDR	-0.159
HMFRPRIEPGAKGSYVLEVQKRLAKLGYEHAGFDGVYGPGTERAIMQLQRDKGLPVTGIVDMRTYEALGLF	-0.99
HMFRSTLEELKHQISGFLKANQSQEFTAQNLADGLRMTSIAEYKRVVNAMDALVRDGELTFDAGKYQYNPN	-0.234
HMFSMKDFGQRLRQLRKERGLTQGDLARLAKIDIMQVSRYERGLGLPSLETAIALARVLETSTDLLFLG	-3.52
HMFSPSDEDLELAHRQIRAFEEVEANGKSIAVVDGRIVESLHIVTARDTLEKAKAITALAEEM	0.000997
HMFSVVDKITLQEELKKLSKKEQLLIQLRYYDELNQEEIAKIFHVSQVQISRMEKKIIEKLKKQF	-3.44
HMFTDEELEHIRSALIQAGIRLSKELGLQKMSVEKLTAAVGIAKGSFYMFFGSKEDFILEVAEYTGAQ	-0.976
HMFTEEEMTKLRHELILAGIRLSRELGLQRMSVEKITSAVGIAKGSFYIFFDSKEDFILEIADHANRE	-1.1
HMFTEEQMDWLRLIKDHIVASLSILPEDLELTPFDRKGGLLGFYDAFGDEYEKILQEMNEELVA	-0.567
HMFTEIMAERNALIQAIQQNLPPQHIQSILSKKNKFRLEDLTNEELRDVWQWILNQRQAQQHQQQ	-0.0958
HMFTGELESRVFELNYVDGLVASAALAGVLTDKGSATPIASRAGGENDMLLVVDRIASYSQIEKIITQLD	0.0191
HMFTKSNLEKLSNSELILKAIDSGNYSKIEFGGSEALNPDVPSYKKDLKNREELIEILSEMGM	0.148
HMFVNADEIAKGLSPFNPSSVAIEAGRLMLKRIGELLSAGVSFSVETTLSTRSYINLIQQAQNQGYSVSL	0.822
HMFVVVPDLIGKTINQFEEDLSELNLKYVVSDSGNFNPEFKINAVLDQSPKANSKVKDGRKIYLTLNAS	-0.434
HMFWRKIDFYGLNLSTYRNIINIGSDYNYIYLDLGNIYKILNPITGKIIEEQDLVMNIDNINWSS	0.283
HMFYNDLINFDVFRDSRKIGKIENINSRLPQPVFEIMYDSRIVLIPIHEDFIRKIDKVNNIIYLDIPDGLL	-2.99
HMGAAFITSSKDNAINIRQSANTDSKVIETVTNGQILESNEKSGEWHKVTYYDNDIKKSFTGYVHEGQLK	0.0505
HMGAAIEYGDRGNTVLQAQRLLIARGYMAGSADGIYGRQMEQAVKRFQKEQGLPESGVVDRRTLQVLIRSR	-1.63
HMGAARRFEMSEGGSQKFWEVAVEGPALTVRFGKLGTAGTTQTKTLASAEAAAKEADKLVREKTKKGYAP	-0.199
HMGAATQADIARVQELLNRLGYDAGSPDGLMGPRTRDAILEYQLTEGLETTGTVTRETLASLEARL	0.0156
